Laboratory results taken from patent publication US20250340660A1 (published 2025).

T1: cynomolgus CD30L expressed on HEK293 cells (cynomolgus, UniProt A0A7N9CVX7 1-234)
T1 sequence: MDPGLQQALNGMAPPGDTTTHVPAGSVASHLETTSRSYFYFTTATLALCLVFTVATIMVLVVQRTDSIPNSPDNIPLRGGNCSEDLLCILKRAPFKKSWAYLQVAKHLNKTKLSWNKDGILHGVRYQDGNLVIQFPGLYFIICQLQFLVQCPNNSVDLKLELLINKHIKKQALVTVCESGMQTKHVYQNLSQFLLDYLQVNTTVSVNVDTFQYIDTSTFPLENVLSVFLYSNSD

T2: human CD30L expressed on cells (B16-huCD30L; HEK293 cells over-expressing TNFSF8) (human, UniProt P32971 1-234)
T2 sequence: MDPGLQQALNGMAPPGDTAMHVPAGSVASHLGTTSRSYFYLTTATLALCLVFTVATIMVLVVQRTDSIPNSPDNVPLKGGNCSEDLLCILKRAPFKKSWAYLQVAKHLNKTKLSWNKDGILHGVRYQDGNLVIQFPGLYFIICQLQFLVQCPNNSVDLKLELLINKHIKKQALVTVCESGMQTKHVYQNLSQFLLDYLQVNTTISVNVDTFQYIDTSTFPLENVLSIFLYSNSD

T3: cynomolgus CD30L expressed on cells (cynomolgus, UniProt A0A7N9CVX7 1-234)
T3 construct: whole, on cells; also called cyCD30L; cyno CD30L
T3 sequence: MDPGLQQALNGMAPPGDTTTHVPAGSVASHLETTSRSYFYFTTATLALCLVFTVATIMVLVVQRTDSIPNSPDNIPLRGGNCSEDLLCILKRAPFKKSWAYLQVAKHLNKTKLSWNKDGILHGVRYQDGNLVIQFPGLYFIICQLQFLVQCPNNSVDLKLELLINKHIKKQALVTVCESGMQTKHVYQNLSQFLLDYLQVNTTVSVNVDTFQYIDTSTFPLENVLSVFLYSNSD

T4: recombinant human CD30L protein (human, UniProt P32971 63-234, limits assumed)
T4 construct: also called huCD30L; rhCD30L
T4 sequence (looked up): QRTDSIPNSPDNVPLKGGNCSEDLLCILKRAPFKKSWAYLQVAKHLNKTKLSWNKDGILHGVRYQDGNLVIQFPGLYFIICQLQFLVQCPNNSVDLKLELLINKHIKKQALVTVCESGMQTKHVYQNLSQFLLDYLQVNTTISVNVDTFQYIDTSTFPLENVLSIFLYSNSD

T5: human CD30L expressed on cells (human, UniProt P32971 1-234)
T5 construct: also called huCD30L; TNFSF8
T5 sequence: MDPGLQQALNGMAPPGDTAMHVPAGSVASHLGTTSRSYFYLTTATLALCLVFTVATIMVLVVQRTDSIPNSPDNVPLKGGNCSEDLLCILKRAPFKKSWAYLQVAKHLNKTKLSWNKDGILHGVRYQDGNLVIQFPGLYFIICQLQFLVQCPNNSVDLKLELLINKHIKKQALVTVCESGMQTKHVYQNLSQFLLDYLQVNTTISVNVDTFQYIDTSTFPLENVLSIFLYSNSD

T6: human CD30L expressed on cells (human, UniProt P32971 1-234)
T6 construct: whole, on cells; The assay field of each row tells which cells carried it; also called huCD30L; B16-huCD30L cells
T6 sequence (looked up): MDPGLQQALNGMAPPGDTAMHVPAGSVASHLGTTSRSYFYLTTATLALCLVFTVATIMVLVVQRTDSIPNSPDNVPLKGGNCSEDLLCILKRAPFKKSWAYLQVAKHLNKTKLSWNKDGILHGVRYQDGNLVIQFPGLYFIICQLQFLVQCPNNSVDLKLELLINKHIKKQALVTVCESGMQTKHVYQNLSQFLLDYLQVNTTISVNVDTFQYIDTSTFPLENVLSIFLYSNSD

T7: recombinant human CD30L protein (human, UniProt P32971 63-234, limits assumed)
T7 construct: Used for ELISA, BLI, Carterra, KinExA; also called rhCD30L; purified human CD30L
T7 sequence (looked up): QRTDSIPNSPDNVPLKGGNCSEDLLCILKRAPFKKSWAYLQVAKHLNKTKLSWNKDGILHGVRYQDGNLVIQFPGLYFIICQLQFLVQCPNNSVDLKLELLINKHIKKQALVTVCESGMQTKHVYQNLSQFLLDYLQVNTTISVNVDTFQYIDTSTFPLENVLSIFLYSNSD


Assays:
[1] = target: T1, cynomolgus CD30L expressed on HEK293 …; experiment: cell-based or functional assay
[2] = target: T2, human CD30L expressed on cells …; experiment: cell-based or functional assay
[3] = target: T3, cynomolgus CD30L expressed on cells; experiment: flow cytometry, hybridoma supernatant 1/50 dil, cells expressing cynomolgus CD30L
[4] = target: T4, recombinant human CD30L protein; experiment: ELISA, hybridoma supernatant 1/5000 dil, recombinant human CD30L
[5] = target: T4, recombinant human CD30L protein; experiment: ELISA, hybridoma supernatant 1/500 dil, recombinant human CD30L
[6] = target: T4, recombinant human CD30L protein; experiment: ELISA, hybridoma supernatant 1/50 dil, recombinant human CD30L
[7] = target: T5, human CD30L expressed on cells; experiment: flow cytometry, hybridoma supernatant 1/50 dil, cells expressing human CD30L
[8] = target: T6, human CD30L expressed on cells; experiment: flow cytometry, labelled antibody on PMA/ionomycin-stimulated primary lymphocytes, Patient 1 (CD, #04-021)
Description: (§1) Peripheral blood mononuclear cells (PBMCs) were isolated from freshly collected whole blood from Ulcerative Colitis (UC) and Crohn's Disease (CD) patients, by conventional density gradient centrifugation. […] After washing to remove unbound antibodies, the cells were fixed in a paraformaldehyde solution and analyzed by flow cytometry to quantify cell surface antibody binding.

[9] = target: T6, human CD30L expressed on cells; experiment: flow cytometry, labelled antibody on PMA/ionomycin-stimulated primary lymphocytes, Patient 4 (CD, #01-051)
Description: as §1

[10] = target: T6, human CD30L expressed on cells; experiment: flow cytometry, labelled antibody on PMA/ionomycin-stimulated primary lymphocytes, Patient 2 (UC, #03-041)
Description: as §1

[11] = target: T6, human CD30L expressed on cells; experiment: flow cytometry, labelled antibody on PMA/ionomycin-stimulated primary lymphocytes, Patient 3 (UC, #02-180)
Description: as §1

[12] = target: T7, recombinant human CD30L protein; experiment: KinExA, Fab in solution; reference: Fab of Ref1
Description: A KD analysis requires immobilization of one interaction partner to a solid phase which is then used as a probe to capture the other interaction partner, the constant binding partner (Fab). […] The solutions are then briefly exposed to the solid phase and a portion of free Fab is captured. The captured Fab is then labeled with a fluorescent secondary molecule. The short contact time with the solid phase is less than the time needed for dissociation of the pre-formed complex in solution, thus competition between the solution and the solid phase titrated binding partner is kinetically excluded.

[13] = target: T1, cynomolgus CD30L expressed on HEK293 …; experiment: flow cytometry, blocking of recombinant CD30-Fc binding to CD30L-expressing cells; reference Ref1
[14] = target: T2, human CD30L expressed on cells …; experiment: as above

| Binder | Cell Binding (MFI) [3] [MFI] | Elisa Binding (OD) [4] [OD] | Elisa Binding (OD) [5] [OD] | Elisa Binding (OD) [6] [OD] | Cell Binding (MFI) [7] [MFI] | further results |
| --- | --- | --- | --- | --- | --- | --- |
| anti-CD30L antibody Clone 2 (parental) (antibody, V domains shown) VH: EVQLVESGGGLVQPGRSLRLSCAASGFNFDDYAMHWVRQAPGKGLEWVSGISWRSGNIGYAGSVKGRFTISRDNAKNSLYLQMNSLRPEDSALYYCAKDKGIGFNWNYEGFDYWGQGTLVTVSS VL: DIQMTQSPSSLSASVGDRVTITCRASQGISNHLAWFQQKPGKAPKSLIYAASSLQSGVPSKFSGSGSGTDFTLTISSLQPEDFATYYCQQYVTYPLTFGGGTKVEIK | – | – | – | – | – | fold better IC50 than Ref1, IL-8 release dual cell assay [1]: 2.6 fold; fold better IC50 than Ref1, IL-8 release dual cell assay [2]: 2 fold |
| anti-CD30L antibody Clone 2 (parental, hybridoma) (antibody, V domains shown, Tested as diluted hybridoma supernatant from mice with a humanized immunoglobulin locus) VH: EVQLVESGGGLVQPGRSLRLSCAASGFNFDDYAMHWVRQAPGKGLEWVSGISWRSGNIGYAGSVKGRFTISRDNAKNSLYLQMNSLRPEDSALYYCAKDKGIGFNWNYEGFDYWGQGTLVTVSS VL: DIQMTQSPSSLSASVGDRVTITCRASQGISNHLAWFQQKPGKAPKSLIYAASSLQSGVPSKFSGSGSGTDFTLTISSLQPEDFATYYCQQYVTYPLTFGGGTKVEIK | 57.6 | 0.565 | 1.71 | 2.15 | 280 | – |
| Clone 2, fluorescently labeled (format not stated in Table 7) (antibody, V domains shown, fluorescent label (site not stated), The variable domains are those of parental clone 2) VH: EVQLVESGGGLVQPGRSLRLSCAASGFNFDDYAMHWVRQAPGKGLEWVSGISWRSGNIGYAGSVKGRFTISRDNAKNSLYLQMNSLRPEDSALYYCAKDKGIGFNWNYEGFDYWGQGTLVTVSS VL: DIQMTQSPSSLSASVGDRVTITCRASQGISNHLAWFQQKPGKAPKSLIYAASSLQSGVPSKFSGSGSGTDFTLTISSLQPEDFATYYCQQYVTYPLTFGGGTKVEIK | – | – | – | – | – | EC50 [8]: 2.4 nM; EC50 [9]: 1.72 nM; EC50 [10]: 1.55 nM; EC50 [11]: 1.71 nM |
| Fab of anti-CD30L clone 2 germlined (Fab, V domains shown, Fab; also called germlined-clone-2 Fab; germlined-clone-2-Fab) VH: EVQLVESGGGLVQPGRSLRLSCAASGFNFDDYAMHWVRQAPGKGLEWVSGISWRSGNIGYADSVKGRFTISRDNAKNSLYLQMNSLRAEDTALYYCAKDKGIGFNWNYEGFDYWGQGTLVTVSS VL: DIQMTQSPSSLSASVGDRVTITCRASQGISNHLAWFQQKPGKAPKSLIYAASSLQSGVPSRFSGSGSGTDFTLTISSLQPEDFATYYCQQYVTYPLTFGGGTKVEIK | – | – | – | – | – | fold KD against the reference 1 anti-CD30L [12]: 4.2 fold |
| anti-CD30L antibody clone 2 germlined (antibody, V domains shown, also called germlined clone 2) VH: EVQLVESGGGLVQPGRSLRLSCAASGFNFDDYAMHWVRQAPGKGLEWVSGISWRSGNIGYADSVKGRFTISRDNAKNSLYLQMNSLRAEDTALYYCAKDKGIGFNWNYEGFDYWGQGTLVTVSS VL: DIQMTQSPSSLSASVGDRVTITCRASQGISNHLAWFQQKPGKAPKSLIYAASSLQSGVPSRFSGSGSGTDFTLTISSLQPEDFATYYCQQYVTYPLTFGGGTKVEIK | – | – | – | – | – | fold better IC50 than Ref1 [13]: 2.13 fold; fold better IC50 than Ref1 [14]: 2.74 fold |
| anti-CD30L antibody Clone 4 (parental, hybridoma) (antibody, V domains shown, Tested as diluted hybridoma supernatant from mice with a humanized immunoglobulin locus) VH: QVQLVESGGGVVQPGRSLRLSCAASGFPFSSYGMHWVRQAPGKGLEWVTFIWFDGNNKDYADSVKGRFSVSRDNSKNTLYLQMNSLRADDTAVYYCARNGVYYGSGAYVDYWGQGTLVTVSS VL: not shown | 67.8 | 0.68 | 2.65 | 3.08 | 151 | – |
